Measured values from publication PMC8495200, “Domain Organization of the UBX Domain Containing Protein 9 and Analysis of Its Interactions With the Homohexameric AAA + ATPase p97 (Valosin-Containing Protein)” (Frontiers in Cell and Developmental Biology, 2021).
Where “and” joins values, the source holds several entries; their conditions need not be identical. Equal entries are not always repeated.

B1: p97 (valosin-containing protein), D. discoideum, recombinant (enzyme, UniProt P90532 1-793, looked up)
chain: MATIEDTSKDNNNPILERKKAPNRLFVEEAINDDNSVVTLNPETMDQLQFFRGDTLLIKGKKRRDTVCIVLSDPTIDPSKIRMNKVVRNNLRVRLGDMISVHQCSDVKYGKRIHVLPIDDTIEGLSGNLFDLYLKPYFLEAYRPVRKGDLFLVRGGMRAVEFKVVETDPGEYCIVAPETFIHCEGEAVKREDEDRLDEVGYDDIGGVRKQLGQIRELVELPLRHPQLFKNIGVKPPKGILLYGPPGCGKTMIARAVANETGAFFFLINGPEIMSKLAGESESNLRKAFEEAEKNAPSIIFIDEIDSIAPKREKTQGEVERRIVSQLLTLMDGLKSRAHVIVMGATNRPNSIDPALRRFGRFDREIDITIPDATGRLEIMRIHTKNMKLDETVDLEAVANETHGYVGADLAALCTESALQCIREKMDVIDLEDETISAEILESMSVTQDHFRTALTLSNPSALRETVVEVPTTTWEDIGGLEGVKRELRETVQYPVEHPEKFRKFGMQPSKGVLFYGPPGCGKTLLAKAIANECQANFISIKGPELLTMWFGESEANVRELFDKARQAAPCVLFFDELDSIARSRGSSQGDAGGAGDRVINQILTEMDGMNAKKNVFIIGATNRPDIIDPAILRPGRLDQLIYIPLPDLPSRVAILKACLNKSPVAKDVDLEFLGQKTQGFSGADLTEICQRACKLAIRESIEKDIESTKARQESGDTKMEDDSVDPVPEITRDHFQEAMRSARRSVSDNDIRKYESFAQTLVQSRGLGNNFKFPDQESSGQFNQDQSDDLFSN
notes: AAA+ ATPase p97 (VCP), D. discoideum; purification as in Rijal et al., 2016; Whether p97 was made as a GST fusion and cleaved is not clearly said; also called VCP; source: E. coli XL1 Blue or ArcticExpress, purified
B2: UBXD9, full length, GST tag cleaved (natural protein, D. discoideum, UniProt Q54X06 1-573, looked up)
chain: MSSIHIIYKTGKTTVPVIASTVMMEVLKKACQYFKIDDSRFQLMYGSTYVNLSLPFRLSGIPNLSRVTIMEKKGASISTVKIAIQMDDGKRFQSNFKTSSTLWDILLTFETEQNLSLTKRFNDVNQYIEPVVTILNREISTIESLQKSSLASINVNEASLIKLTFKQTDRTNEEVLPIIVSYQSPSTPTESPTTTTTTTTTTTTNNTTKEESPKTTNSPTNSESSTKSQNSSGSQQSPIIISPPTQQSTSSDVSTPTMDIDSPLVKNVEKSPISDLGLNPSSNIPLPDKTYNNETTTTTTTTSNNDVQVSTPPKIATMDHKDRELLVYTPSNNQVDPKSIRHNEKMTEEDIKRLVEANKRVKKEKEEFDSVLRTKAMREREAYKKHKNFSTSIIRIVFPGGQKILEMKFLIREKISNLLKYINEYILAQPNDSVYLYTTPPNKTLDLNTTFLKEGLFPRAKIFLGVSPGTTLIFSELVNELIEESNNKNNNNNNNNNTTTTTTSTISQEELDKQEEEQERIEEQMKIEEEKQLKLEDEQEKERQRALRSMFNNEKEGDSQKRPVPKWFTAGKK
notes: The cleaved state is stated for the Blue Native PAGE; also called full-length UBXD9; source: E. coli XL1 Blue or ArcticExpress, purified, liberated from the beads with PreScission protease

Target: the molecule itself
Experiment: native gel or EMSA; Blue Native PAGE, purified recombinant non-tagged proteins in 1 x PBS, 1 mM DTT, 1 mM ATP; 4-16% Bis-Tris gels, cold room, Coomassie staining

Protein | stoichiometry N
B1 | 6 and 2
B2 | 6
